Legend:
[1] = Fluorescence of DAPI binding to double stranded DNA; conditions: 50 nM double stranded DNA, 100 nM DAPI, 10 mM Tris-HCl pH 8.0, 50 mM NaCl, 5 minutes room temperature
Protocol: (§1) For gel-based substrates, completed reactions were mixed with a dye-free SDS loading buffer (50 mM Tris-HCl (pH 6.8), 100 mM dithiothreitol, 4% SDS, 10% glycerol), heated to 90° C. for 5 minutes, separated by 12% SDS-PAGE, and visualized by PhosphorImager analysis (Bio-Rad Molecular Imager FX) (Bio-Rad Laboratories, Hercules, Calif.). For all other substrates, an equal volume of 200 nM DAPI in 10 mM Tris-HCl (pH 8.0) and 50 mM NaCl was added and incubated for 5 minutes at room temperature prior to fluorescence detection. Final concentrations of the fluorescence effecting molecules at the time of detection in these experiments were 100 nM DAPI, 50 nM substrate, and 25-800 nM enzyme.
(§2) Fluorescence readings were made on a Synergy HT Multi-Detection Microplate Reader (BIO-TEK) using a tungsten-halogen lamp and 360/40 bandpass excitation filter in conjunction with a 460/40 emission filter. Corning Half Area, NBS treated (Nonbinding Surface), Black, 96-well Microplates plates (Corning #3686) were used for all DAPI-based experiments. The combination of enzymes, DNA, and DAPI were all shown to contribute linearly to changes in the overall fluorescence based on the range of concentrations used; there was therefore no need to correct for the inner filter effect.
Each of the 4L, 5L, 5R, and N5R substrates, along with their non-damaged counterparts, were initially tested for their ability to associate with DAPI and thereby affect the detected fluorescence. […] In the absence of DNA, there was only a small increase in fluorescence from the addition of DAPI, as would be expected. The differences in fluorescence for each of the DAPI bound substrates are presumably due to both, sequence context and experimental variations in DNA concentration. For example, the 4L sequence is expected to have a lower total fluorescence due to the importance of the 3′ nucleotide following the 5′-AATT-3′ binding sequence in regards to fluorescence intensity (38). Due to the fact that the molecular accessibility assay is based on relative fluorescence, these differences are inconsequential.

4L substrate = test: DAPI molecular accessibility assay, active fraction determination, 4L substrate; format: biochemical; conditions: for activity (100*α): 100 nM 4L substrate, 50 mM sodium borohydride; for calculated α value / active fraction: 4L sequence; for active fraction: NaBH4 and NaCNBH3
Protocol: (§3) Oligonucleotide substrates were purchased from Midland Certified Reagent Co. (Midland, Tex.) and were PAGE purified prior to use. All gel-based comparisons were performed with the following double stranded substrate: (35DHU) 5′-TET-tgtcaatagcaagnggagaagtcaatcgtgagtct-3′ (SEQ ID NO:1) where TET represents the fluorescent label 6-tetrachlorofluorescein and n=5,6-dihydrouracil (DHU). Molecular accessibility DAPI-based experiments were performed with the following double-stranded substrates: (4L) 5′-gccccgccaattnccgccgccgcc-3′ (SEQ ID NO:2), (5L) 5′-gccccgccaattcnccgccgccgcc-3′(SEQ ID NO:3), (5R) 5′-gccccgccgccccgccnaattccgccgccgcc-3′ (SEQ ID NO:4), and (N5R) 5′-gccccgccgccccgccncaattccgccgccgcc-3′ (SEQ ID NO:5) where n=either DHU for damaged substrates or cytosine for non-damaged controls. All complementary strands contained a G residue across from DHU (or across from the cytosine in controls—e.g. Watson-Crick base pairing) and were annealed in 50 mM Tris-HCl (pH 8.0), 50 mM NaCl by heating to 94° C. for 2 minutes and slowly cooling to 4° C. over the period of 1 hour in a Perkin Elmer DNA Thermal Cycler 480. In each case the ratio of damaged to complementary strand during annealing was 1:1.1. Note that the DAPI-based oligonucleotides all differ in location of the AT-rich region in relation to the damaged base.
(§4) EcoNth, EcoFpg, EcoNei, and NEIL1 were incubated for 30 minutes at 37° C. with 100 nM DHU:G-containing substrates at final concentrations of 50, 100, 200, 400, 800, 1200, or 1600 nM, in the presence of either 50 or 100 mM sodium borohydride (NaBH4) or sodium cyanoborohydride (NaCNBH3), as described in the Figures. Borohydride compounds were dissolved fresh for each independent experiment (one substrate and series of enzyme dilutions) as 1.25× stocks in Milli-Q water. Reactions were initiated by simultaneous addition of enzyme and borohydride solution to annealed substrates utilizing separate multi-pipettes in a 96-well format to a final volume of 100 μL. Except for EcoFpg trapping with sodium cyanoborohydride, the final buffer for each reaction contained 10 mM Tris-HCl (pH 8.0), 60 mM Na^+, and either 50 mM BH4^− or CNBH3^−. In the former case, the final buffer contained 10 mM Tris-HCl (pH 8.0), 110 mM Na^+, and 100 mM CNBH3^−.
as §1, §2
Given a sufficiently high concentration of trapping reagent, and a sufficiently long incubation time, the quantity of ES complex is related to the quantity of total enzyme added, ET, and total substrate added, ST, by the equation: ES=min(αET, βST) where α is the active enzyme fraction, P is the active substrate fraction (fraction cleavable), and min is the minimum function. […]

35DHU substrate = test: Gel-based Schiff base trapping assay (SDS-PAGE, PhosphorImager), active fraction determination; format: biochemical; conditions: for α value (active enzyme fraction): 100 nM 35DHU; for active fraction: gel-based, from α values with NaBH4 and NaCNBH3
Protocol: as §3, §4, §1
Given a sufficiently high concentration of trapping reagent, and a sufficiently long incubation time, the quantity of ES complex is related to the quantity of total enzyme added, ET, and total substrate added, ST, by the equation: ES=min(αET, βST) where α is the active enzyme fraction, P is the active substrate fraction (fraction cleavable), and min is the minimum function. Furthermore, holding ST constant while varying ET can be depicted graphically (FIG. 1A) where the rising slope is equivalent to α, the plateau is equivalent to ST*β, and the breakpoint is defined by the relation: ST=(α/β)ET. Therefore, by varying ET from below to well above the constant ST concentration, the active enzyme fraction can be determined by linear regression of all points falling below the ET breakpoint concentration. The decision to include or exclude a given point pre-breakpoint is simply made so as to minimize the root-mean squared deviation from both the pre-breakpoint regression and the post-breakpoint best-fit line with a slope of zero. […]

N5R substrate = test: DAPI molecular accessibility assay, active fraction determination, N5R substrate; format: biochemical; conditions: N5R sequence; for calculated α value: NaBH4 and NaCNBH3
Protocol: as §3
EcoNth, EcoFpg, EcoNei, and NEIL1 were incubated for 30 minutes at 37° C. with 100 nM DHU:G-containing substrates at final concentrations of 50, 100, 200, 400, 800, 1200, or 1600 nM, in the presence of either 50 or 100 mM sodium borohydride (NaBH4) or sodium cyanoborohydride (NaCNBH3), as described in the Figures. […]
as §1
Fluorescence readings were made on a Synergy HT Multi-Detection Microplate Reader (BIO-TEK) using a tungsten-halogen lamp and 360/40 bandpass excitation filter in conjunction with a 460/40 emission filter. […] The combination of enzymes, DNA, and DAPI were all shown to contribute linearly to changes in the overall fluorescence based on the range of concentrations used; there was therefore no need to correct for the inner filter effect. […]

5L substrate = test: DAPI molecular accessibility assay, active fraction determination, 5L substrate; format: biochemical; conditions: 5L sequence, NaBH4 and NaCNBH3
Protocol: (§5) Oligonucleotide substrates were purchased from Midland Certified Reagent Co. (Midland, Tex.) and were PAGE purified prior to use. All gel-based comparisons were performed with the following double stranded substrate: (35DHU) 5′-TET-tgtcaatagcaagnggagaagtcaatcgtgagtct-3′ (SEQ ID NO:1) where TET represents the fluorescent label 6-tetrachlorofluorescein and n=5,6-dihydrouracil (DHU). […]
as §1
(§6) Fluorescence readings were made on a Synergy HT Multi-Detection Microplate Reader (BIO-TEK) using a tungsten-halogen lamp and 360/40 bandpass excitation filter in conjunction with a 460/40 emission filter. […]

5R substrate = test: DAPI molecular accessibility assay, active fraction determination, 5R substrate; format: biochemical; conditions: 5R sequence, NaBH4 and NaCNBH3
Protocol: as §5, §1, §6

[2] = NaCNBH3 (50 mM EcoNth, 100 mM EcoFpg), 30 minutes 37° C.
[3] = EcoNth range stated jointly for 4L, 5L, 5R

For 5′-gccccgccaattcnccgccgccgcc-3′ [5L], which “FI (Fluorescence Intensity)” value [1] is on record?
The value was 65.9 ± 2.6 x10^−3.

With “NEIL1: human ortholog of endonuclease VIII, recent purification with good activity” as the molecule, how does the “activity (100*α)” value (4L substrate) read?
The value was “over 50%”.

With 5′-gccccgccaattnccgccgccgcc-3′ [4L] as the molecule, how does the “FI (Fluorescence Intensity)” value [1] read?
Its value is 55.2 ± 2.8 x10^−3.

Which “FI (Fluorescence Intensity)” value [1] does the source give for “5′-gccccgccgccccgccncaattccgccgccgcc-3′ [N5R]” here?
Its value is 60.7 ± 3.0 x10^−3.

Which “FI (Fluorescence Intensity)” value [1] does the source give for “5′-gccccgccgccccgccnaattccgccgccgcc-3′ [5R]” here?
The value was 69.5 ± 2.9 x10^−3.

B1: EcoNei: Escherichia coli endonuclease VIII, purification known to have little activity (protein, UniProt P50465 2-263, looked up)
Endonuclease 8: PEGPEIRRAADNLEAAIKGKPLTDVWFAFPQLKPYQSQLIGQHVTHVETRGKALLTHFSNDLTLYSHNQLYGVWRVVDTGEEPQTTRVLRVKLQTADKTILLYSASDIEMLTPEQLTTHPFLQRVGPDVLDPNLTPEVVKERLLSPRFRNRQFAGLLLDQAFLAGLGNYLRVEILWQVGLTGNHKAKDLNAAQLDALAHALLEIPRFSYATRGQVDENKHHGALFRFKVFHRDGEPCERCGSIIEKTTLSSRPFYWCPGCQH
Which “activity (100*α)” value (4L substrate) does the source give for B1 here?
Its value is “less than 5%”.

B2: EcoFpg: Escherichia coli formamidopyrimidine-DNA glycosylase, purified recombinant enzyme preparation (protein, UniProt P05523 2-269, looked up)
Formamidopyrimidine-DNA …: PELPEVETSRRGIEPHLVGATILHAVVRNGRLRWPVSEEIYRLSDQPVLSVQRRAKYLLLELPEGWIIIHLGMSGSLRILPEELPPEKHDHVDLVMSNGKVLRYTDPRRFGAWLWTKELEGHNVLTHLGPEPLSDDFNGEYLHQKCAKKKTAIKPWLMDNKLVVGVGNIYASESLFAAGIHPDRLASSLSLAECELLARVIKAVLLRSIEQGGTTLKDFLQSDGKPGYFAQELQVYGRKGEPCRVCGTPIVATKHAQRATFYCRQCQK
Which “α value (active enzyme fraction)” value (35DHU substrate; 50 mM NaBH4, 30 minutes 37° C.) does the source give for B2 here?
The value was 0.121.

And the “α value (active enzyme fraction)” value (35DHU substrate; [2])?
The value was 0.147.

And the active fraction (35DHU substrate)?
The active fraction was “approximately 13%”.

What about the “calculated α value” (N5R substrate) of the same molecule?
The value was “significantly lower”.

What about the “calculated α value” (4L substrate; 50 mM NaBH4) of the same molecule?
Its value is 0.154.

And the “calculated α value” (4L substrate; 100 mM NaCNBH3)?
The value was 0.136.

What about the active fraction (4L substrate) of the same molecule?
Its active fraction is “approximately 14%”.

What about the “calculated α value” (5L substrate; [3]) of the same molecule?
Its value is “significantly lower”.

And the active fraction (5R substrate)?
The active fraction was roughly 11%.

And the “calculated α value” (5R substrate; [3])?
The value was “slightly lower”.

B3: EcoNth: Escherichia coli endonuclease III, purified recombinant enzyme preparation (protein, UniProt P0AB83 1-211, looked up)
Endonuclease III: MNKAKRLEILTRLRENNPHPTTELNFSSPFELLIAVLLSAQATDVSVNKATAKLYPVANTPAAMLELGVEGVKTYIKTIGLYNSKAENIIKTCRILLEQHNGEVPEDRAALEALPGVGRKTANVVLNTAFGWPTIAVDTHIFRVCNRTQFAPGKNVEQVEEKLLKVVPAEFKVDCHHWLILHGRYTCIARKPRCGSCIIEDLCEYKEKVDI
What does the source list for B3?
α value (active enzyme fraction) (35DHU substrate; 50 mM NaBH4, 30 minutes 37° C.): 0.199; α value (active enzyme fraction) (35DHU substrate; [2]): 0.206; active fraction (35DHU substrate): approximately 20%; active fraction (N5R substrate; NaBH4 (first value, figure order)): approximately 12%; calculated α value (N5R substrate): lower; active fraction (N5R substrate; NaCNBH3 (second value, figure order)): ~16%; active fraction (4L substrate): 19-24%; active fraction (5L substrate): 19-24%
